In US20060019893 one finds Km, FX activation by relipidated TF•FVIIa (0.4 nM relipidated TF, 1 nM FVIIa), Vmax, FX activation by relipidated TF•FVIIa (0.4 nM relipidated TF, 1 nM FVIIa) and Vmax/Km, FX activation by relipidated TF•FVIIa (mOD405/min/nM) data, which are given here for one protein.

The data set concerns the target human FX, P00742.

Chain of human FX, P00742 (P00742 whole entry, looked up): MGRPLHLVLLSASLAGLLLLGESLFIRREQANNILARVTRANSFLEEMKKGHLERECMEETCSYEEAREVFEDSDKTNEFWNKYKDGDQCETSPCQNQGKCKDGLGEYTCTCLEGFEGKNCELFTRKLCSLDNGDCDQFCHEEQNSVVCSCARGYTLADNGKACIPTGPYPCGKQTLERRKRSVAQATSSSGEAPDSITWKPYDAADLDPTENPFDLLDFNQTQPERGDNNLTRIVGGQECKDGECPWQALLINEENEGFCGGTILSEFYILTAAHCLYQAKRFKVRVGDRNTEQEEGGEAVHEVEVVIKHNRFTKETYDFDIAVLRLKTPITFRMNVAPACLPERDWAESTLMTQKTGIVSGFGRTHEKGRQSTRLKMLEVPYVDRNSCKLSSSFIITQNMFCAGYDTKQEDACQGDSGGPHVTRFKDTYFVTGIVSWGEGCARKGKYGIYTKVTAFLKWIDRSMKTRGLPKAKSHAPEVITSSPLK

B1: wildtype FVIIa (protein)
chain 1: ANAFLEELRPGSLERECKEEQCSFEEAREIFKDAERTKLFWISYSDGDQCASSPCQNGGSCKDQLQSYICFCLPAFEGRNCETHKDDQLICVNENGGCEQYCSDHTGTKRSCRCHEGYSLLADGVSCTPTVEYPCGKIPILEKRNASKPQGR
chain 2: IVGGKVCPKGECPWQVLLLVNGAQLCGGTLINTIWVVSAAHCFDKIKNWRNLIAVLGEHDLSEHDGDEQSRRVAQVIIPSTYVPGTTNHDIALLRLHQPVVLTDHVVPLCLPERTFSERTLAFVRFSLVSGWGQLLDRGATALELMVLNVPRLMTQDCLQQSRKVGDSPNITEYMFCAGYSDGSKDSCKGDSGGPHATHYRGTWYLTGIVSWGQGCATVGHFGVYTRVSQYIEWLQKLMRSEPRPGVLLRAPFP
Regarding B1, the Km, FX activation by relipidated TF•FVIIa (0.4 nM relipidated TF, 1 nM FVIIa) was 0.13 µM; the Vmax, FX activation by relipidated TF•FVIIa (0.4 nM relipidated TF, 1 nM FVIIa) amounted to 600 mOD405/min; the Vmax/Km, FX activation by relipidated TF•FVIIa (mOD405/min/nM) is 4.6.
